We go through 2 substances from publication doi:10.1101/2021.04.01.438030.

The target in the experiment is SNAP-GLP-1R (glucagon-like peptide-1 receptor with an N-terminal SNAP-tag) on HEK293-SNAP-GLP-1R cells (UniProt P43220). The experiment is described as follows: FRET.
Chain of UniProt P43220 (P43220 24-463): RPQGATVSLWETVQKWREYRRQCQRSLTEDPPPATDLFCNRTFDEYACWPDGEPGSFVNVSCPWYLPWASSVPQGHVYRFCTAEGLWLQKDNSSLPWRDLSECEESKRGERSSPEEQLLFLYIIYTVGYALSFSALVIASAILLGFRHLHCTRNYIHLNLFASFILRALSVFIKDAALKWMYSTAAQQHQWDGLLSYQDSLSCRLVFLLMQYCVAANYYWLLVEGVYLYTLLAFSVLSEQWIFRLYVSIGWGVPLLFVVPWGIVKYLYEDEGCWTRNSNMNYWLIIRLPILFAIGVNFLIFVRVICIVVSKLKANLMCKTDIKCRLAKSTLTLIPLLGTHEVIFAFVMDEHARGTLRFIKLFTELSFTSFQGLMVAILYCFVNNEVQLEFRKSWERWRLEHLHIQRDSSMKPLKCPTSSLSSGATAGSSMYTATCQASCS

exendin-4 (from UniProt P26349 48-87) showed a Ki of 0.63 nM.
With “exendin-4-C16 (from UniProt P26349 48-87)”, the Ki turned out to be 1.6 nM.
